Reference: paper doi:10.1101/2022.11.04.515170, “Insights into cargo sorting by SNX32 in neuronal and non-neuronal cells: physiological implications in neurite outgrowth” (bioRxiv, 2022)
Changes are numbered by the printed parent chain. Names and notes keep the numbering of the source.

How the values were obtained:
Settings in all cases: partners not purified
[1] = target: T1, GFP-SNX4 S448R (UniProt O95219 1-450, S448R); test: co-IP; GST-GFP nanobody (GBP) on glutathione Sepharose beads, 2 h at 4°C with HeLa cell lysate overexpressing GFP-SNX4 (WT or mutant) and HA-SNX32 (WT or mutant); immunoblot anti-GFP and anti-HA
T1 construct: Sorting nexin 4 (SNX4) with S448R in the BAR domain, by site directed mutagenesis of GFP-tagged SNX4; also called pEGFP SNX4S448R; source: HeLa, transfected, overexpressed, in lysate
T1 sequence (looked up): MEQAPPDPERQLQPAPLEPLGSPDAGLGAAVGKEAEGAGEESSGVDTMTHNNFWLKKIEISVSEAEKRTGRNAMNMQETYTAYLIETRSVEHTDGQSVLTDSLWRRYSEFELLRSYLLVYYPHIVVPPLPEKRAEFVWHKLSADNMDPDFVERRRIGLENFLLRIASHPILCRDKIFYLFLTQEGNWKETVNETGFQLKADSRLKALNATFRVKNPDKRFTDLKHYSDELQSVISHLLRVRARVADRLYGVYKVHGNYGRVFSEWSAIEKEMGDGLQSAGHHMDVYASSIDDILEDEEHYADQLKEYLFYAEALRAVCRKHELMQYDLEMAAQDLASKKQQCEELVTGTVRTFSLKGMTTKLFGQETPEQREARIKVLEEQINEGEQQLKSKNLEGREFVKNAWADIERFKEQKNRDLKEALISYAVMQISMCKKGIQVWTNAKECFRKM

[2] = target: T2, GFP-SNX4 Y258E (UniProt O95219 1-450, Y258E); test: as above
T2 construct: Sorting nexin 4 (SNX4) with Y258E in the BAR domain, by site directed mutagenesis of GFP-tagged SNX4; also called pEGFP SNX4Y258E; source: HeLa, transfected, overexpressed, in lysate
T2 sequence (looked up): T1 sequence (looked up) with Y258E, R448S

[3] = target: T3, GFP-SNX1 (UniProt Q13596 1-522); test: co-IP; GST-GFP nanobody (GBP) on glutathione Sepharose beads, 2 h at 4°C with HEK293T cell lysate overexpressing GFP-tagged and HA-tagged SNX proteins; washed with PBS; immunoblot anti-GFP and anti-HA
T3 construct: Sorting nexin 1 (SNX1); pEGFP C1 SNX1, gift from Prof Peter J Cullen; also called GFP-SNX1 WT; source: HEK293T or HeLa, transfected, overexpressed, in lysate

[4] = target: T4, GFP-SNX8 (UniProt Q9Y5X2 1-465); test: as above
T4 construct: Sorting nexin 8 (SNX8); source: HEK293T, transfected, overexpressed, in lysate
T4 sequence (looked up): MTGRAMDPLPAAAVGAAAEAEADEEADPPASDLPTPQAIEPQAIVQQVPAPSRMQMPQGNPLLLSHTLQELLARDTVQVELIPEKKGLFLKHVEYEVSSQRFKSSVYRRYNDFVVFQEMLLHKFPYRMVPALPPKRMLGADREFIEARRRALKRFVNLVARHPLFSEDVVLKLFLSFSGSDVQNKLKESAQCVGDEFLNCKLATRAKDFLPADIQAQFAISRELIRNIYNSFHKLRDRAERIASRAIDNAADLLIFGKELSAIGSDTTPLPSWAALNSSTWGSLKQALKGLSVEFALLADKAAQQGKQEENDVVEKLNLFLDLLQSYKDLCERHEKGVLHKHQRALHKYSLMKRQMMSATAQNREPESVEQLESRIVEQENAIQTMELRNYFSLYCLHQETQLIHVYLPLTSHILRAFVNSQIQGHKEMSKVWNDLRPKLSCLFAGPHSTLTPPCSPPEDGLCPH

[5] = target: T5, GFP-SNX32 WT (UniProt Q86XE0 1-403); test: as above
T5 construct: Sorting nexin 32 (SNX32), full length; pEGFP C1 SNX32 FL, gift from Prof Peter J Cullen; also called GFP-SNX32 wild type; GFP-tagged SNX32; source: HEK293T or HeLa, transiently transfected, in lysate; SH-SY5Y, lentivirally transduced, stably expressing, in lysate
T5 sequence (looked up): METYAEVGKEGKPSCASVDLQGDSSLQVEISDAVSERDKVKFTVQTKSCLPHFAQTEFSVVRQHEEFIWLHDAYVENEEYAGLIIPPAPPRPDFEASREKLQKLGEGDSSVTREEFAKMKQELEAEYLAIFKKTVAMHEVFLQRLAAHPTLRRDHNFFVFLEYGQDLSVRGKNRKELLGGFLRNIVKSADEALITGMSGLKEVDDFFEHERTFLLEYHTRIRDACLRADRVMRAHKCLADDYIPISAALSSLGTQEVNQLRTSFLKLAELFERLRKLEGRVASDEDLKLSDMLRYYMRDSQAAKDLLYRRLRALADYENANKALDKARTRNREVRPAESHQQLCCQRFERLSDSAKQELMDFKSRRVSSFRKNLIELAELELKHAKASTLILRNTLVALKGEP

[6] = target: T6, GFP-SNX4 (UniProt O95219 1-450); test: co-IP; GST-GFP nanobody (GBP) on glutathione Sepharose beads, 2 h at 4°C with HeLa cell lysate overexpressing GFP-SNX4 (WT or mutant) and HA-SNX32 (WT or mutant); immunoblot anti-GFP and anti-HA
T6 construct: Sorting nexin 4 (SNX4); pEGFP C1 SNX4, gift from Prof Peter J Cullen; also called GFP-SNX4 WT; source: HEK293T or HeLa, transfected, overexpressed, in lysate
T6 sequence (looked up): T1 sequence (looked up) with R448S

T3 sequence (Q13596 whole entry): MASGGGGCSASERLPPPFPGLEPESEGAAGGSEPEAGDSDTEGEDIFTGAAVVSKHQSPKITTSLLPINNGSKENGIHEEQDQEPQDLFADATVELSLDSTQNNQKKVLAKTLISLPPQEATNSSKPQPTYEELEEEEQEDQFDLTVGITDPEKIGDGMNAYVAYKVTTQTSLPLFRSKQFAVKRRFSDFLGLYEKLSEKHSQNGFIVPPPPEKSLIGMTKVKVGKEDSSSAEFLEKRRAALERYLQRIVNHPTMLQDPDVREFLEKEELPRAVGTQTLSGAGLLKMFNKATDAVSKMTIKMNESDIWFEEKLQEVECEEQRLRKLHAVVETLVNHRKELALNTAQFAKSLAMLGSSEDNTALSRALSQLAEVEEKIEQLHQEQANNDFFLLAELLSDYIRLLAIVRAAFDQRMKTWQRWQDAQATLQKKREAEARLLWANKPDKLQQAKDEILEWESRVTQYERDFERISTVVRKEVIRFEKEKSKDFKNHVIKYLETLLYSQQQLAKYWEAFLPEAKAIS

B1: HA-SNX32 FL (natural protein, UniProt Q86XE0 1-403, looked up)
chain: T5 sequence (looked up)
notes: Sorting nexin 32 (SNX32), full length (FL); pcDNA3 HA N(I) SNX32 FL, subcloned from pEGFP C1 SNX32 FL; also called HA-SNX32 WT; Sorting nexin 32; source: HEK293T or HeLa, transfected, overexpressed, in lysate
Which “ratio of HA to GFP band intensity” value [1] does the source give for B1 here?
Its value is 0.23.

What about the “ratio of HA to GFP band intensity” value [2] of the same binder?
The value was 0.33.

And the “ratio of HA to GFP band intensity” value [3]?
The value was 0.98.

What about the “ratio of HA to GFP band intensity” value [4] of the same binder?
Its value is 0.62.

What about the “ratio of HA to GFP band intensity” value [5] of the same binder?
The value was 0.85.

B2: HA-SNX32 E256R (natural protein, UniProt Q86XE0 1-403, looked up)
chain: T5 sequence (looked up) with E256R
notes: SNX32 with E256R, by site directed mutagenesis of HA-tagged SNX32; source: HeLa, transfected, overexpressed, in lysate
B2 was tested. Which “ratio of HA to GFP band intensity” value [6] did it give?
The value was 0.66.

B3: HA-SNX32 Q259R (natural protein, UniProt Q86XE0 1-403, looked up)
chain: T5 sequence (looked up) with Q259R
notes: SNX32 with Q259R, by site directed mutagenesis of HA-tagged SNX32; source: HeLa, transfected, overexpressed, in lysate
How did the “ratio of HA to GFP band intensity” value [6] turn out when B3 was run?
The value was 0.75.

B4: HA-SNX32 R220E (natural protein, UniProt Q86XE0 1-403, looked up)
chain: T5 sequence (looked up) with R220E
notes: SNX32 with R220E, by site directed mutagenesis of HA-tagged SNX32; source: HeLa, transfected, overexpressed, in lysate
Which “ratio of HA to GFP band intensity” value [6] does the source give for B4 here?
Its value is 1.02.

B5: HA-SNX32 R366E (natural protein, UniProt Q86XE0 1-403, looked up)
chain: T5 sequence (looked up) with R366E
notes: SNX32 with R366E, by site directed mutagenesis of HA-tagged SNX32; source: HeLa, transfected, overexpressed, in lysate
How did the “ratio of HA to GFP band intensity” value [6] turn out when B5 was run?
Its value is 0.49.
